Laboratory results from patent US20240279280A1 (CAMBRIDGE ENTERPRISE, published 2024).
Several values for one entry are separate records, joined by “and”; a condition that tells them apart may be missing. Equal entries are not always repeated. Positions of bridges follow the written chain, without caps; N, C: chain ends. Non-standard residues stand in square brackets, D forms with d. No end group written: not given here. *: point of attachment. Phe(3,4,5-F3) = N[C@@H](Cc1cc(F)c(F)c(F)c1)C(=O)O; Myristoyl = CCCCCCCCCCCCCC(=O)*; pGlu = O=C1CC[C@@H](C(=O)O)N1; Nle = CCCC[C@H](N)C(=O)O; Abu = CC[C@H](N)C(=O)O; Aib = CC(C)(N)C(=O)O

T1: human apelin receptor (human, UniProt P35414 1-380)
T1 construct: whole, on cells; also called AGTRL1; APJ
T1 sequence (looked up): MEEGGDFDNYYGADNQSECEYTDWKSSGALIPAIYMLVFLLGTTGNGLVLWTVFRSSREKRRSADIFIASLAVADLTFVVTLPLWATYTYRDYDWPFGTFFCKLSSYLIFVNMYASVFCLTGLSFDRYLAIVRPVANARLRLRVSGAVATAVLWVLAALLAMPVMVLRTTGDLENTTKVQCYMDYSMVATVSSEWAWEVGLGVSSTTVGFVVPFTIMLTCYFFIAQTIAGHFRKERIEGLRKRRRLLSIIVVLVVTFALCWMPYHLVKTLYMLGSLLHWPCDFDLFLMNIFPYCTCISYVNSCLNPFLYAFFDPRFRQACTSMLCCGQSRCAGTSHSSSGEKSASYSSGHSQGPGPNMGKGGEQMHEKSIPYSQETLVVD

B1: MM193 (peptide)
peptide: CRPR[Nle]CKHCR[Aib]R[Nle][Phe(3,4,5-F3)]
modifications: cysteine pairing not given here
notes: also called CRPR-Nle-CKHCR-Aib-R-Nle-(3,4,5-trifluoro-)F
B2: MM262 (peptide)
peptide: QRPR[Nle]CKHCR[Aib]R[Nle][Phe(3,4,5-F3)]
modifications: cysteine pairing not given here
notes: also called QRPR-Nle-CKHCR-Aib-R-Nle-(3,4,5-trifluoro-)F
B3: MM54 (peptide)
peptide: CRPRLCKHCRPRLC
modifications: disulfide 1-6, 9-14
notes: Previously published macrocyclic comparator; also called cyclo(1-6)CRPRLC-KH-cyclo(9-14)CRPRLC
B4: MM302 (peptide)
peptide: CRPR[Nle]CHKCR[Aib]R[Nle][Phe(3,4,5-F3)]
modifications: cysteine pairing not given here
notes: also called CRPR-Nle-CHKCR-Aib-R-Nle-(3,4,5-trifluoro-)F
B5: MM300 (peptide)
peptide: Myristoyl-CRPR[Nle]CKHCR[Aib]R[Nle][Phe(3,4,5-F3)]
modifications: cysteine pairing not given here
notes: also called Myristoyl-CRPR-Nle-CKHCR-Aib-R-Nle-(3,4,5-trifluoro-)F

target: T1, human apelin receptor; test: radioligand competition vs [Glp65,Nle75,Tyr77][125I]apelin-13 on human left ventricle homogenate
Procedure: Equilibrium was broken by centrifugation (20,000 g for 10 min, 4° C.). Pellets were washed with Tris-HCl buffer (50 mmol/L, pH 7.4, 4° C.), re-centrifuged and bound radioactivity in the final pellets counted. Data from triplicate experiments were analysed using the iterative non-linear curve fitting programs EBDA and LIGAND (KELL package, Biosoft, UK) or GraphPad Prism 6 to derive values of affinity (expressed as either the equilibrium dissociation constant KD or the negative log₁₀ of the dissociation constant, pKᵢ±sem) and receptor density (BMAX±sem in fmoles bound per mg protein).

| Binder | HLV pKi |
| --- | --- |
| B1 | 6.12 |

target: T1, human apelin receptor; test: cell-based or functional assay

| Binder | DRx β-Arrestin pA2 | DRx cAMP pD2 |
| --- | --- | --- |
| B1 | 7.68 | – |
| B2 | 7.53 | – |
| CRPRLCHKCRPRLC [MM107] | 7.24 | – |
| B3 | – | 5.86 |
| CRPRLCKHCRPRLC (Linear peptide) [MM108] | 7.41 | – |

target: T1, human apelin receptor; test: radioligand competition vs [Glp65,Nle75,Tyr77][125I]apelin-13 on CHO-K1 cells expressing human apelin receptor (Cerep); Cheng-Prusoff
Procedure: Binding assays were performed by Cerep (Celle L'Evescault, France) on Chinese Hamster Ovary (CHO-K1) cells expressing the human apelin receptor. […] The results were expressed as a percent of control specific binding ((measured specific binding/control specific binding)×100) and as a percent inhibition of control specific binding (100−((measured specific binding/control specific binding)×100)) obtained in the presence of the test compounds. […] Results showing an inhibition between 20% and 50% were indicative of weak to moderate effects.

| Binder | Ki |
| --- | --- |
| CRPR[Nle][Abu]KHCR[Aib]R[Nle][Phe(3,4,5-F3)] (cysteine pairing not given here) [MM298] | 16 nM |
| B4 | 17 nM |
| Myristoyl-ARPR[Nle][Abu]KH[Abu]R[Aib]R[Nle][Phe(3,4,5-F3)] [MM315] | 3 nM and 2.7 nM |
| CRPR[Nle]CKH[Abu]R[Aib]R[Nle][Phe(3,4,5-F3)] (cysteine pairing not given here) [MM299] | 6.1 nM |
| B1 | 19 nM |
| B2 | 34 nM |
| CRPRLCHKCRPRLC [MM107] | 180 nM |
| ARPR[Nle][Abu]KH[Abu]R[Aib]R[Nle][Phe(3,4,5-F3)] [MM314] | 10 nM and 8.9 nM |
| [pGlu]RPR[Nle]CKHCR[Aib]R[Nle][Phe(3,4,5-F3)] (cysteine pairing not given here) [MM297] | 55 nM |
| B5 | 13 nM |
| Myristoyl-ARPR[Nle][Abu]HK[Abu]R[Aib]R[Nle][Phe(3,4,5-F3)] [MM316] | 3 nM and 2.8 nM |
| B3 | 82 nM |
| ARPR[Nle]CKH[Abu]R[Aib]R[Nle][Phe(3,4,5-F3)] [MM312] | 190 nM and 160 nM |
| CRPRLCKHCRPRLC (Linear peptide) [MM108] | 140 nM |
| Ac-ARPR[Nle]CKH[Abu]R[Aib]R[Nle][Phe(3,4,5-F3)] [MM313] | 53 nM and 47 nM |

target: T1, human apelin receptor; test: cell-based or functional assay; remark: another data set of the same source

| Binder | DRx cAMP assay EC50 (weak agonist activity) [nM] |
| --- | --- |
| B3 | 1400 |

target: T1, human apelin receptor; test: binding to human left ventricle

| Binder | Kd [nM] |
| --- | --- |
| B3 | 358 |

target: T1, human apelin receptor; test: cell-based or functional assay; remark: another data set of the same source

| Binder | DRx cAMP pA2 | DRx β-Arrestin pA2 |
| --- | --- | --- |
| CRPR[Nle][Abu]KHCR[Aib]R[Nle][Phe(3,4,5-F3)] (cysteine pairing not given here) [MM298] | 7.59 and 7.12 | 7.76 |
| Myristoyl-ARPR[Nle][Abu]KH[Abu]R[Aib]R[Nle][Phe(3,4,5-F3)] [MM315] | 8.52 and 8.11 | – |
| CRPR[Nle]CKH[Abu]R[Aib]R[Nle][Phe(3,4,5-F3)] (cysteine pairing not given here) [MM299] | 7.32 and 6.95 | 8.1 and 8.53 |
| ARPR[Nle][Abu]KH[Abu]R[Aib]R[Nle][Phe(3,4,5-F3)] [MM314] | 6.43 and 6.71 | – |
| [pGlu]RPR[Nle]CKHCR[Aib]R[Nle][Phe(3,4,5-F3)] (cysteine pairing not given here) [MM297] | 6.08 and 6.14 | 7.38 |
| Myristoyl-ARPR[Nle][Abu]HK[Abu]R[Aib]R[Nle][Phe(3,4,5-F3)] [MM316] | 7.41 and 7.88 | – |
| ARPR[Nle]CKH[Abu]R[Aib]R[Nle][Phe(3,4,5-F3)] [MM312] | 6.6 and 6.84 | – |
| Ac-ARPR[Nle]CKH[Abu]R[Aib]R[Nle][Phe(3,4,5-F3)] [MM313] | 6.66 and 6.92 | – |
